In paper PMC4104443:

Test system: O=NO
Assay: purified protein
Settings: 50 mM potassium phosphate pH 7.0, 4 °C, anaerobic, nitrite up to 50 mM

Q: How did the Km turn out when “AxNiR (AxCuNiR) (Achromobacter xylosoxidans; F330C)” was run?
A: 1200 ± 100 µM

Q: What about the kcat of the same substance?
A: 310 s⁻¹

Q: What about the kcat/Km of the same substance?
A: 260000 M⁻¹ s⁻¹
